This series deals with LMWK (natural substrate of KLK1).

Kb (KLK1 extracted from porcine pancreas), sequence (chain, as listed by the source): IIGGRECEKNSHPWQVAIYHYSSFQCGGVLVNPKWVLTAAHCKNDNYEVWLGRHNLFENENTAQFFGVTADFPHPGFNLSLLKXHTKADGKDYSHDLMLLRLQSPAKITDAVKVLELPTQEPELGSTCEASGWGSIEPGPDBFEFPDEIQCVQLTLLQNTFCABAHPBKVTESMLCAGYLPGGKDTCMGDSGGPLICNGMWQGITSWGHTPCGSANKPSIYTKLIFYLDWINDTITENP
PEG-Kb (pancreatic kallikrein I for injection, PEG10K-modified Kb), sequence (chain, as listed by the source): as above

Take “Kb (KLK1 extracted from porcine pancreas)”: the Bradykinin production µg/mg(enzyme), molar ratio of substrate to enzyme 1:1 (µg/mg(enzyme)) is 20.9; the Bradykinin production µg/mg(enzyme), molar ratio of substrate to enzyme 5:1 (µg/mg(enzyme)) came out at 90.8; the Bradykinin production µg/mg(enzyme), molar ratio of substrate to enzyme 10:1 (µg/mg(enzyme)) worked out at 166; the Bradykinin production µg/mg(enzyme), molar ratio of substrate to enzyme 15:1 (µg/mg(enzyme)) amounted to 218. In addition, the Bradykinin production µg/mg(enzyme), molar ratio of substrate to enzyme 20:1 (µg/mg(enzyme)) turned out to be 288.

Regarding “PEG-Kb (pancreatic kallikrein I for injection, PEG10K-modified Kb)”, the Bradykinin production µg/mg(enzyme), molar ratio of substrate to enzyme 1:1 (µg/mg(enzyme)) was 11.3; the Bradykinin production µg/mg(enzyme), molar ratio of substrate to enzyme 5:1 (µg/mg(enzyme)) amounted to 44.6; the Bradykinin production µg/mg(enzyme), molar ratio of substrate to enzyme 10:1 (µg/mg(enzyme)) was 80; the Bradykinin production µg/mg(enzyme), molar ratio of substrate to enzyme 15:1 (µg/mg(enzyme)) was 104. The Bradykinin production µg/mg(enzyme), molar ratio of substrate to enzyme 20:1 (µg/mg(enzyme)) was found to be 120.
